# Assay results from the supplement of paper PMC12042874.
# ± gives the uncertainty stated by the source.
# Assay: amyloid nucleation score (Sup35N fusion, yeast selection) (log enrichment); library NNK3; higher = more nucleation; inactive = no reads after selection
# Summary of the method: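 The nucleation score, computed with DiMSum, is the log enrichment of output over input reads, centred on the mode score of non-aggregating sequences. Sequences with under 100 input reads were dropped. Reads were generated by Illumina sequencing of plasmid inserts from psi-negative yeast with Sup35N fused to peptides of 20 random codons, induced with 100 μM copper sulfate for 24 hours and grown 7 days at 30°C on medium lacking adenine and uracil.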
row,Substance,amyloid nucleation score
1,VMMDWILQIVAYSSDHTGSK,inactive
2,VMNLEPRSHVWYVTVFSHAS,1.68 ± 0.096
3,VMRPIPMSLYLNNFNES,inactive
4,VMVAMTFNWHDALILWDGMV,inactive
5,VMVSPPFTYWSRYVDYEYGE,inactive
6,VNCTNLRKPLQLTQ,inactive
7,VNCWTNYRYQGSDFIMSYIR,inactive
8,VNEPDSVFMT,inactive
9,VNFLSDIVNFGCIVWFPPKI,2.32 ± 0.087
10,VNFSYNYVGWCFMQLCSAAN,1.74 ± 0.086
11,VNGFFLVACTCSYFNNRSSW,1.57 ± 0.12
12,VNIGTIWETDKCMEIFCAAA,inactive
13,VNILVFLCFAPSLSSRYWWL,2.28 ± 0.081
14,VNIYGCSYVLHPGCCNGESR,2.84 ± 0.073
15,VNLEYYV,inactive
16,VNMISCVYFDMSIERTDEMI,0.801 ± 0.19
17,VNNVQCLYDAVREDSRWYWG,inactive
18,VNPCLYGPYSSNNCSRSYFV,inactive
19,VNQLPRVSGAPIGLLWVCVK,inactive
20,VNTSINVYRYPFRCRSYRMH,0.833 ± 0.085
21,VPFVGLLSLALAFYSIKNSN,0.921 ± 0.23
22,VPGFGVLACCGQVLLFSHLF,inactive
23,VPGYLWECS,inactive
24,VPKFVMDMIL,inactive

row,Substance,amyloid nucleation score
1,VPLTRSKYYFRSWRWIDCGG,inactive
2,VPNSRIVTREGCWESACGIR,inactive
3,VPTMMRVR,inactive
4,VQGIRFRELFGRPAVRVVWH,inactive
5,VQLIWDFYSCSN,inactive
6,VQSFGPNFD,inactive
7,VQVIRFFWIMGLTGWTRELP,inactive
8,VQWSEMTAFTGFFSVYISSG,inactive
9,VRCSR,inactive
10,VRDQLRVTLVRSENGIHAHY,inactive
11,VRDRCRIHCAYNRSKGTVSN,inactive
12,VRGKRTSLWDIKVDYSPDTV,inactive
13,VRLSVMG,inactive
14,VRNRSFGTALDNELLNLRPR,inactive
15,VRNYGLDFRRACGWT,inactive
16,VRPELMALTDI,inactive
17,VRRIIML,inactive
18,VRSLDNQLSVDFFFVGPVGF,1.3 ± 0.14
19,VRSRMSNWFNHPTVFDRLWA,0.547 ± 0.2
20,VRSVRGADELDLICHRLSRN,inactive
21,VRVLFGPFYYVFGSYLIGLV,inactive
22,VRYVSFAEFSWGLRFSVSRR,inactive
23,VSCSPMYEEYRHGNLAEYNE,-0.559 ± 0.94
24,VSDYYDKYGLYFCWFWDGYK,inactive

row,Substance,amyloid nucleation score
1,VSGLDWFM,inactive
2,VSGRWFTMWSGFSLCFALSG,0.062 ± 0.46
3,VSGSKWQLREGVAKYMMCRY,inactive
4,VSHLAQHCNRLLLVSMLLGA,inactive
5,VSHRYFTGRMIALIRGDCLV,inactive
6,VSHSAFVLNSCERE,inactive
7,VSHTIKAILFGFRRQDHLYF,inactive
8,VSINRRLFCLLGDDFTS,inactive
9,VSKLWSYLVLYPHWV,inactive
10,VSKYIVSHIASSWSWGQWVL,inactive
11,VSLKVIDKNFNFHVMYGCID,inactive
12,VSLKYSTKKPWLKTDHPCWI,inactive
13,VSMRSTYTFG,0.597 ± 0.51
14,VSNECVPWAPYGIGGF,inactive
15,VSQYSVLGVAWSELFRTVD,-0.064 ± 0.26
16,VSRMARYRLLTYRSAFNSML,-0.605 ± 1.2
17,VSSAYLKCSFLKNLAVSLYG,inactive
18,VSSLR,inactive
19,VSSTALGGNNSICHLSPFYT,inactive
20,VSTSFDFKWNLSLGIWFMVI,inactive
21,VSVYKNVAFFISWI,1.58 ± 0.09
22,VSWHNILMWTRTPL,inactive
23,VSWYCCTFAAFILWNSSWCI,inactive
24,VSYNFGYAYECLGYVRFV,0.572 ± 0.36

row,Substance,amyloid nucleation score
1,VTASSPDLIGGVHMEWRLTC,inactive
2,VTCSRSLRLSKMFPNKMFLI,inactive
3,VTGLCSDTHRVSYEFRLPRK,inactive
4,VTHGSVCFTTIYRTIWRFNR,inactive
5,VTICISPAHLFAS,inactive
6,VTILYASASMESLSLGLCGT,inactive
7,VTLDEFRIISHCSYSFCYEG,inactive
8,VTLLWFISPFMMHWWVQRNG,-0.191 ± 1
9,VTLMILKGVFKFM,-0.136 ± 1
10,VTLTN,inactive
11,VTPVFMIWAS,inactive
12,VTRQLYVMGFVGHDEEGVVS,inactive
13,VVCFLYIRSYNQGLCRSYFR,2.29 ± 0.091
14,VVDFSTYWY,inactive
15,VVDKILITINRSLLLSGADN,inactive
16,VVGIKV,inactive
17,VVIIK,inactive
18,VVLAMTHSYRNFKMFRDHYH,0.957 ± 0.12
19,VVLDYVSYAVIHGWEM,inactive
20,VVLFKISSYPRHIHFGFHLL,inactive
21,VVLSWT,-0.477 ± 1.1
22,VVMACGFLGKRGDSGCLLVM,inactive
23,VVMWQRRLRYGPKERNNGKV,-0.067 ± 0.4
24,VVMYIRANPTDIYSYTLQPR,1.56 ± 0.12

row,Substance,amyloid nucleation score
1,VVSLRQLRW,inactive
2,VVTASYWLLCLSLYFSAS,inactive
3,VVTNG,0.408 ± 0.17
4,VVWASV,inactive
5,VVWDGMQIGSWPQ,inactive
6,VVWLDNKDVLTWHARCLCPM,inactive
7,VVWLQFGMEVKSSFSMTSKT,inactive
8,VVWNMYKFKACWYRDVTPLF,inactive
9,VVYDPVICDGWALDGGVGAR,inactive
10,VWETKMTLLINSKNYFVGFW,inactive
11,VWGIRFLLVWNRGHAGYSLN,inactive
12,VWKIHYCFDVFIMV,inactive
13,VWLFVSSMEYTNGTYQHHMM,inactive
14,VWLILRFMWAVVRTNRSNLD,inactive
15,VWMIPISCKSQFLFEWYGHY,1.12 ± 0.18
16,VWQYNDGSYCVVMYVSSSDY,1.06 ± 0.19
17,VWRHQDLGARAKAASHG,inactive
18,VWSFGLLVS,-0.17 ± 1.1
19,VWTLAAVYYIIVRYSHKIRK,inactive
20,VWVFKTNFVFRVQLGHSLGC,1.46 ± 0.094
21,VYCPELLSRCGQVGSTCCDR,inactive
